Data: US20050272659A1 (BRIGHAM AND WOMEN S HOSPITAL, published 2005)
Starred links: 1 amine or outer side, 2 acyl side, 3 side chain; linkers in the order of their positions; H or OH if unused. Non-standard residues stand in square brackets, D forms with d. *: point of attachment. dThr(OBz) = D-threonine with an O-benzyl (OBz) group, C[C@H](OCc1ccccc1)[C@@H](N[*:1])C(=O)[*:2]; Thr(OBz) = threonine with O-benzyl ester (OBz); dBpa = N[C@H](Cc1ccc(C(=O)c2ccccc2)cc1)C(=O)O; Boc = CC(C)(C)OC(=O)*; Aib = CC(C)(N)C(=O)O

Tests used:
Experiment in all cases: cell-based or functional assay
[1] = target: γ-secretase (detergent-solubilized membranes from HeLa cells)
[2] = target: T1, γ-secretase in Chinese hamster ovary (CHO) cells stably transfected with human APP
[3] = target: T1, γ-secretase in Chinese hamster ovary …; remark: listed apart in the source

Row | Cell-free Assay IC50 (concentration required for 50% inhibition of Aβ40 production) [1] | IC50 (concentration that reduced production of total Aβ by 50% in CHO cells stably transfected with human APP) [2] | other results | Binder
1 | 0.012 µM | – | – | Boc-G[Aib][dV][dV][dI][Aib][dThr(OBz)][dV][Aib][dV][dI][Aib]-OMe (SMILES CC[C@@H](C)[C@@H](NC(=O)[C@H](NC(=O)[C@H](NC(=O)C(C)(C)NC(=O)CNC(=O)OC(C)(C)C)C(C)C)C(C)C)C(=O)NC(C)(C)C(=O)N[C@@H](C(=O)N[C@@H](C(=O)NC(C)(C)C(=O)N[C@@H](C(=O)N[C@@H](C(=O)NC(C)(C)C(=O)OC)[C@H](C)CC)C(C)C)C(C)C)[C@H](C)OCc1ccccc1) [D-peptide Boc-Gly-Aib-Val-Val-Ile-Aib-Thr(OBz)-Val-Aib-Val-Ile-Aib-OMe (SEQ ID NO:17)]
2 | – | 2 µM | – | Boc-V[Aib]IA[Thr(OBz)][Aib]IV[Aib]-OMe [Boc-Val-Aib-Ile-Ala-Thr(OBz)-Aib-Ile-Val-Aib-OMe (SEQ ID NO:4), all-L]
3 | 3.1 µM | – | – | Boc-[Aib]VVI[Aib][Thr(OBz)]V[Aib]VI[Aib]-OMe [L-peptide Boc-Aib-Val-Val-Ile-Aib-Thr(OBz)-Val-Aib-Val-Ile-Aib-OMe (SEQ ID NO:16)]
4 | – | 15 µM | – | Boc-IA[Thr(OBz)][Aib]IV[Aib]-OMe [Boc-Ile-Ala-Thr(OBz)-Aib-Ile-Val-Aib-OMe (SEQ ID NO:2), all-L]
5 | 0.014 µM | – | – | Boc-[Aib][dV]G[Aib][dV][dV][dI][Aib][dThr(OBz)][dV][Aib][dV][dI][Aib]-OMe (SMILES CC[C@@H](C)[C@@H](NC(=O)[C@H](NC(=O)[C@H](NC(=O)C(C)(C)NC(=O)CNC(=O)[C@H](NC(=O)C(C)(C)NC(=O)OC(C)(C)C)C(C)C)C(C)C)C(C)C)C(=O)NC(C)(C)C(=O)N[C@@H](C(=O)N[C@@H](C(=O)NC(C)(C)C(=O)N[C@@H](C(=O)N[C@@H](C(=O)NC(C)(C)C(=O)OC)[C@H](C)CC)C(C)C)C(C)C)[C@H](C)OCc1ccccc1) [D-peptide Boc-Aib-Val-Gly-Aib-Val-Val-Ile-Aib-Thr(OBz)-Val-Aib-Val-Ile-Aib-OMe (SEQ ID NO:19)]
6 | – | 3 µM | – | Boc-G[Aib]VVI[Aib][Thr(OBz)]V[Aib]-OMe [Boc-Gly-Aib-Val-Val-Ile-Aib-Thr(OBz)-Val-Aib-OMe (SEQ ID NO:9), all-L]
7 | – | – | IC50 in the same cell-based assay using CHO cells stably transfected with human APP (total Aβ production) [3]: 0.1 µM | Boc-[dV]G[Aib][dV][dV][dBpa][Aib][dThr(OBz)][dV][Aib]-OMe (SMILES COC(=O)C(C)(C)NC(=O)[C@H](NC(=O)[C@H](NC(=O)C(C)(C)NC(=O)[C@@H](Cc1ccc(C(=O)c2ccccc2)cc1)NC(=O)[C@H](NC(=O)[C@H](NC(=O)C(C)(C)NC(=O)CNC(=O)[C@H](NC(=O)OC(C)(C)C)C(C)C)C(C)C)C(C)C)[C@H](C)OCc1ccccc1)C(C)C) [Boc-D-Val-Gly-Aib-D-Val-D-Val-D-BPA-Aib-D-Thr(OBz)-D-Val-Aib-OMe (SEQ ID NO:11)]
8 | – | 10 µM | – | Boc-[Aib]IA[Thr(OBz)][Aib]IV[Aib]-OMe [Boc-Aib-Ile-Ala-Thr(OBz)-Aib-Ile-Val-Aib-OMe (SEQ ID NO:3), all-L]
9 | 0.026 µM | – | – | Boc-G[dL][Aib][dV]G[Aib][dV][dV][dI][Aib][dThr(OBz)][dV][Aib][dV][dI][Aib]-OMe (SMILES CC[C@@H](C)[C@@H](NC(=O)[C@H](NC(=O)[C@H](NC(=O)C(C)(C)NC(=O)CNC(=O)[C@H](NC(=O)C(C)(C)NC(=O)[C@@H](CC(C)C)NC(=O)CNC(=O)OC(C)(C)C)C(C)C)C(C)C)C(C)C)C(=O)NC(C)(C)C(=O)N[C@@H](C(=O)N[C@@H](C(=O)NC(C)(C)C(=O)N[C@@H](C(=O)N[C@@H](C(=O)NC(C)(C)C(=O)OC)[C@H](C)CC)C(C)C)C(C)C)[C@H](C)OCc1ccccc1)
10 | 0.78 µM | – | – | Boc-VG[Aib]VVI[Aib][Thr(OBz)]V[Aib]VI[Aib]-OMe [L-peptide Boc-Val-Gly-Aib-Val-Val-Ile-Aib-Thr(OBz)-Val-Aib-Val-Ile-Aib-OMe (SEQ ID NO:18)]
11 | – | 6 µM | – | Boc-VVI[Aib][Thr(OBz)]V[Aib]-OMe [Boc-Val-Val-Ile-Aib-Thr(OBz)-Val-Aib-OMe (SEQ ID NO:7), all-L]
12 | 0.36 µM | – | – | Boc-G[Aib]VVI[Aib][Thr(OBz)]V[Aib]VI[Aib]-OMe [L-peptide Boc-Gly-Aib-Val-Val-Ile-Aib-Thr(OBz)-Val-Aib-Val-Ile-Aib-OMe (SEQ ID NO:17)]
13 | 0.00014 µM | – | IC50 in a cell-based assay from APP-transfected CHO cells [3]: 0.009 µM | Boc-[dV]G[Aib][dV][dV][dI][Aib][dThr(OBz)][dV][Aib][dV][dI][Aib]-OMe (SMILES CC[C@@H](C)[C@@H](NC(=O)[C@H](NC(=O)[C@H](NC(=O)C(C)(C)NC(=O)CNC(=O)[C@H](NC(=O)OC(C)(C)C)C(C)C)C(C)C)C(C)C)C(=O)NC(C)(C)C(=O)N[C@@H](C(=O)N[C@@H](C(=O)NC(C)(C)C(=O)N[C@@H](C(=O)N[C@@H](C(=O)NC(C)(C)C(=O)OC)[C@H](C)CC)C(C)C)C(C)C)[C@H](C)OCc1ccccc1) [D-peptide Boc-Val-Gly-Aib-Val-Val-Ile-Aib-Thr(OBz)-Val-Aib-Val-Ile-Aib-OMe (SEQ ID NO:18)]
14 | 0.025 µM | – | – | Boc-[dV][dV][dI][Aib][dThr(OBz)][dV][Aib][dV][dI][Aib]-OMe (SMILES CC[C@@H](C)[C@@H](NC(=O)[C@H](NC(=O)[C@H](NC(=O)OC(C)(C)C)C(C)C)C(C)C)C(=O)NC(C)(C)C(=O)N[C@@H](C(=O)N[C@@H](C(=O)NC(C)(C)C(=O)N[C@@H](C(=O)N[C@@H](C(=O)NC(C)(C)C(=O)OC)[C@H](C)CC)C(C)C)C(C)C)[C@H](C)OCc1ccccc1) [D-peptide Boc-Val-Val-Ile-Aib-Thr(OBz)-Val-Aib-Val-Ile-Aib-OMe (SEQ ID NO:15)]
15 | 4.7 µM | – | – | Boc-L[Aib]VG[Aib]VVI[Aib][Thr(OBz)]V[Aib]VI[Aib]-OMe [L-peptide Boc-Leu-Aib-Val-Gly-Aib-Val-Val-Ile-Aib-Thr(OBz)-Val-Aib-Val-Ile-Aib-OMe (SEQ ID NO:20)]
16 | 10 µM | – | – | Boc-VVI[Aib][Thr(OBz)]V[Aib]VI[Aib]-OMe [L-peptide Boc-Val-Val-Ile-Aib-Thr(OBz)-Val-Aib-Val-Ile-Aib-OMe (SEQ ID NO:15)]
17 | – | 5 µM | – | Boc-GV[Aib]IA[Thr(OBz)][Aib]IV[Aib]-OMe [Boc-Gly-Val-Aib-Ile-Ala-Thr(OBz)-Aib-Ile-Val-Aib-OMe (SEQ ID NO:5), all-L]
18 | 11 µM | – | – | Boc-GL[Aib]VG[Aib]VVI[Aib][Thr(OBz)]V[Aib]VI[Aib]-OMe
19 | – | 25 µM | – | Boc-A[Thr(OBz)][Aib]IV[Aib]-OMe [Boc-Ala-Thr(OBz)-Aib-Ile-Val-Aib-OMe (SEQ ID NO:1), all-L]
20 | – | 12 µM | – | Boc-VI[Aib][Thr(OBz)]V[Aib]-OMe [Boc-Val-Ile-Aib-Thr(OBz)-Val-Aib-OMe (SEQ ID NO:6), all-L]
21 | 0.91 µM | – | – | Boc-[Aib]VG[Aib]VVI[Aib][Thr(OBz)]V[Aib]VI[Aib]-OMe [L-peptide Boc-Aib-Val-Gly-Aib-Val-Val-Ile-Aib-Thr(OBz)-Val-Aib-Val-Ile-Aib-OMe (SEQ ID NO:19)]
22 | 0.028 µM | – | – | Boc-[Aib][dV][dV][dI][Aib][dThr(OBz)][dV][Aib][dV][dI][Aib]-OMe (SMILES CC[C@@H](C)[C@@H](NC(=O)[C@H](NC(=O)[C@H](NC(=O)C(C)(C)NC(=O)OC(C)(C)C)C(C)C)C(C)C)C(=O)NC(C)(C)C(=O)N[C@@H](C(=O)N[C@@H](C(=O)NC(C)(C)C(=O)N[C@@H](C(=O)N[C@@H](C(=O)NC(C)(C)C(=O)OC)[C@H](C)CC)C(C)C)C(C)C)[C@H](C)OCc1ccccc1) [D-peptide Boc-Aib-Val-Val-Ile-Aib-Thr(OBz)-Val-Aib-Val-Ile-Aib-OMe (SEQ ID NO:16)]
23 | – | 6 µM | – | Boc-[Aib]VVI[Aib][Thr(OBz)]V[Aib]-OMe [Boc-Aib-Val-Val-Ile-Aib-Thr(OBz)-Val-Aib-OMe (SEQ ID NO:8), all-L]
24 | – | – | IC50 of Aβ production in APP-transfected cells [3]: 2 µM | Boc-[Aib]AL[Aib]AL[Aib]AL[Aib]-OMe (SMILES COC(=O)C(C)(C)NC(=O)[C@H](CC(C)C)NC(=O)[C@H](C)NC(=O)C(C)(C)NC(=O)[C@H](CC(C)C)NC(=O)[C@H](C)NC(=O)C(C)(C)NC(=O)[C@H](CC(C)C)NC(=O)[C@H](C)NC(=O)C(C)(C)NC(=O)OC(C)(C)C) [Boc-Aib-Ala-Leu-Aib-Ala-Leu-Aib-Ala-Leu-Aib-OMe (SEQ ID NO:13)]
25 | 0.016 µM | – | – | Boc-[dL][Aib][dV]G[Aib][dV][dV][dI][Aib][dThr(OBz)][dV][Aib][dV][dI][Aib]-OMe (SMILES CC[C@@H](C)[C@@H](NC(=O)[C@H](NC(=O)[C@H](NC(=O)C(C)(C)NC(=O)CNC(=O)[C@H](NC(=O)C(C)(C)NC(=O)[C@@H](CC(C)C)NC(=O)OC(C)(C)C)C(C)C)C(C)C)C(C)C)C(=O)NC(C)(C)C(=O)N[C@@H](C(=O)N[C@@H](C(=O)NC(C)(C)C(=O)N[C@@H](C(=O)N[C@@H](C(=O)NC(C)(C)C(=O)OC)[C@H](C)CC)C(C)C)C(C)C)[C@H](C)OCc1ccccc1) [D-peptide Boc-Leu-Aib-Val-Gly-Aib-Val-Val-Ile-Aib-Thr(OBz)-Val-Aib-Val-Ile-Aib-OMe (SEQ ID NO:20)]
26 | – | 3 µM | – | Boc-VG[Aib]VVI[Aib][Thr(OBz)]V[Aib]-OMe [Boc-Val-Gly-Aib-Val-Val-Ile-Aib-Thr(OBz)-Val-Aib-OMe (SEQ ID NO:10), all-L]
